# Measured values from patent publication US20120201828A1 (Sanofi, published 2012).
# Changes are numbered by the printed parent chain.
# B1: hu2H11-SPDB-DM4 (DAR 3.93) (antibody, V domains shown)
# VH: QVQLVQSGAEVVKPGASVKISCKASGYTFTAYYMHWVKQSPVQSLEWIGLVNPYNGFSSYNQKFQGKASLTVDKSSSTAYMELHSLTSEDSAVYYCAREFYGYRYFDVWGQGTAVTVSS
# VL: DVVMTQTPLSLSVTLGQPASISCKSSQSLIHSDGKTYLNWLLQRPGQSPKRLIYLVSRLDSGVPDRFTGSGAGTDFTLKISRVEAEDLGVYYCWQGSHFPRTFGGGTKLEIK
# modifications: DM4 through SPDB linker on lysine residues, sites not given; average DAR 3.93
# B2: hu2H11R35R74-SPDB-DM4 (DAR 3.97) (antibody, V domains shown)
# VH: B1 VH with K74R
# VL: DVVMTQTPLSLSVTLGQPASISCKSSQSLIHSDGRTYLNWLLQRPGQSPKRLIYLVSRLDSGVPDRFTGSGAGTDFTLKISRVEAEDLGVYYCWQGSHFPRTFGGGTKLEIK
# modifications: DM4 through SPDB linker on lysine residues, sites not given; average DAR 3.97
# B3: hu2H11R35R74-PEG4-Mal-DM4 (DAR 6.1) (antibody, V domains shown)
# VH: B1 VH with K74R
# VL: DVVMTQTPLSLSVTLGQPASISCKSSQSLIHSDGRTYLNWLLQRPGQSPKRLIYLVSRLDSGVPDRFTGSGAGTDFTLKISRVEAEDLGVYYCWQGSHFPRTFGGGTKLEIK
# modifications: DM4 through PEG4-Mal linker on lysine residues, sites not given; average DAR 6.1
# B4: hu2H11-PEG4-NHAc-DM4 (DAR 5.3) (antibody, V domains shown)
# VH: B1 VH
# VL: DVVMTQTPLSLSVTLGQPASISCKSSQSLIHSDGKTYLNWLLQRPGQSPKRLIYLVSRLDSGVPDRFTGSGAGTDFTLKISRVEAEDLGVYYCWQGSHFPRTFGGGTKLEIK
# modifications: DM4 through PEG4-NHAc linker on lysine residues, sites not given; average DAR 5.3
# B5: hu2H11R35R74-PEG4-NHAc-DM4 (DAR 5.5) (antibody, V domains shown)
# VH: B1 VH with K74R
# VL: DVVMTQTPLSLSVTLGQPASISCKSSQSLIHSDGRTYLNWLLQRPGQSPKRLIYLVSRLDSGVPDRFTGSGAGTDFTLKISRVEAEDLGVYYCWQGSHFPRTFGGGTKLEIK
# modifications: DM4 through PEG4-NHAc linker on lysine residues, sites not given; average DAR 5.5
# B6: hu2H11-R35R74-PEG4-AcNH-DM4 (DAR 5.9) (antibody, V domains shown)
# VH: B1 VH with K74R
# VL: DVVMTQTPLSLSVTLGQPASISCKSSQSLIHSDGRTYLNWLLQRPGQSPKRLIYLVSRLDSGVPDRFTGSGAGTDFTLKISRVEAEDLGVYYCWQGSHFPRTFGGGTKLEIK
# modifications: DM4 through PEG4-AcNH linker on lysine residues, sites not given; average DAR 5.9
# B7: hu2H11-R35R74-PEG8-AcNH-DM4 (DAR 4.9) (antibody, V domains shown)
# VH: B1 VH with K74R
# VL: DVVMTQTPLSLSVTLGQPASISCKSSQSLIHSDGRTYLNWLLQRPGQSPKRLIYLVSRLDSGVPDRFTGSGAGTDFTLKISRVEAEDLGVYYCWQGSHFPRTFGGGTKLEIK
# modifications: DM4 through PEG8-AcNH linker on lysine residues, sites not given; average DAR 4.9
# B8: hu2H11-R35R74-PEG4-Allyl-DM4 (DAR 5.3) (antibody, V domains shown)
# VH: B1 VH with K74R
# VL: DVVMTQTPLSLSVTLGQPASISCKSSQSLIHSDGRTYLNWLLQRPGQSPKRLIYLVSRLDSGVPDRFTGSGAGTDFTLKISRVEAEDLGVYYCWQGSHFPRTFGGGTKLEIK
# modifications: DM4 through PEG4-Allyl linker on lysine residues, sites not given; average DAR 5.3
# B9: hu2H11-R35R74-PEG4-AcNMe-DM4 (DAR 5.4) (antibody, V domains shown)
# VH: B1 VH with K74R
# VL: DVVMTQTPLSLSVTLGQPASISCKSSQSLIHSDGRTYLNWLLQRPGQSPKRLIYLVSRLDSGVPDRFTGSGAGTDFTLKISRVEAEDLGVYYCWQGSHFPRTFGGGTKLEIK
# modifications: DM4 through PEG4-AcNMe linker on lysine residues, sites not given; average DAR 5.4
# B10: hu2H11-R35R74-Acetyl-DM4 (DAR 6.5) (antibody, V domains shown)
# VH: B1 VH with K74R
# VL: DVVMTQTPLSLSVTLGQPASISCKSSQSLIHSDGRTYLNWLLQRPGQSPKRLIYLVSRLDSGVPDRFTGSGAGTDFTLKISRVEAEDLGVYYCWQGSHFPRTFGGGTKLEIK
# modifications: DM4 through Acetyl linker, sites not given; average DAR 6.5
# B11: hu2H11-PEG4-Mal-DM4 (DAR 6.99) (antibody, V domains shown)
# VH: B1 VH
# VL: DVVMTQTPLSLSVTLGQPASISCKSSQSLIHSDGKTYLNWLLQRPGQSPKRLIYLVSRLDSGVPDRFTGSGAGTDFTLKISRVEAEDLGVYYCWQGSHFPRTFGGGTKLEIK
# modifications: DM4 through PEG4-Mal linker on lysine residues, sites not given; average DAR 6.99
# B12: hu2H11R35R74-PEG4-Mal-DM4 (DAR 6.70) (antibody, V domains shown)
# VH: B1 VH with K74R
# VL: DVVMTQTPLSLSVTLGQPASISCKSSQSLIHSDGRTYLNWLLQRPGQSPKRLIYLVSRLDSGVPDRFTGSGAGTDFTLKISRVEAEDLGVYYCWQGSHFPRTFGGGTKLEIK
# modifications: DM4 through PEG4-Mal linker on lysine residues, sites not given; average DAR 6.70
# B13: hu2H11R35R74-PEG4-Mal-DM4 (DAR 7.00) (antibody, V domains shown)
# VH: B1 VH with K74R
# VL: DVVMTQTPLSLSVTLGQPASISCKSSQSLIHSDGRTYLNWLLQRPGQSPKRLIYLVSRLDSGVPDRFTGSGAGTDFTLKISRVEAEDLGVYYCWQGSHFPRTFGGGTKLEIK
# modifications: DM4 through PEG4-Mal linker on lysine residues, sites not given; average DAR 7.00
# B14: hu2H11R35R74 (antibody, V domains shown)
# VH: B1 VH with K74R
# VL: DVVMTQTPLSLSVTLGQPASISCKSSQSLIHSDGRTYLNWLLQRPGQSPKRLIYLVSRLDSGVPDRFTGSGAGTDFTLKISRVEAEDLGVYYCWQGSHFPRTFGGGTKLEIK
# notes: only the variable domains are tied by name to humanized 2H11R35R74; also called humanized 2H11R35R74; naked hu2H11R35R74
# B15: hu2H11 (antibody, V domains shown)
# VH: B1 VH
# VL: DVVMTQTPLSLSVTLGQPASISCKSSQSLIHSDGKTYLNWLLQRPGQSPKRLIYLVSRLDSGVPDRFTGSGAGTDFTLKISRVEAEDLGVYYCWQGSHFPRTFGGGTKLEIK
# notes: Humanized IgG made in CHO cells; also called hu53.2H11; humanized 53.2H11
# B16: hu2H11-PEG4-NHAc-DM4 (D/A 7.5) (antibody, V domains shown)
# VH: B1 VH
# VL: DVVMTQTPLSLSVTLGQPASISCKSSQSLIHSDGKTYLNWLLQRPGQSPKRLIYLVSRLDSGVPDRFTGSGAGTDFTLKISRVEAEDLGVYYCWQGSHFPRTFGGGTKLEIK
# modifications: DM4 through PEG4-NHAc linker on surface lysine residues, sites not given; average D/A 7.5 per antibody
# notes: Antibody-drug conjugate of hu2H11; also called conjugated hu2H11
# B17: hu2H11R35R74-PEG4-NHAc-DM4 (D/A 5.6) (antibody, V domains shown)
# VH: B1 VH with K74R
# VL: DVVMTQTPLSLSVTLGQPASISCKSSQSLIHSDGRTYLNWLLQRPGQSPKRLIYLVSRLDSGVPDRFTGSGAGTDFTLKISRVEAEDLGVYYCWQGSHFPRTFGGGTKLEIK
# modifications: DM4 through PEG4-NHAc linker on lysine residues, sites not given; average D/A 5.6 per antibody
# notes: Antibody-drug conjugate of hu2H11R35R74; constant regions as for m2
# B18: hu2H11R35R74-PEG4-NHAc-DM4 (D/A 6.3) (antibody, V domains shown)
# VH: B1 VH with K74R
# VL: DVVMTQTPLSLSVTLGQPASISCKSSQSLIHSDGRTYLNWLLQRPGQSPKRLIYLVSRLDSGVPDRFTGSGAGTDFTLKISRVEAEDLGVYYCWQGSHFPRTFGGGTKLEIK
# modifications: DM4 through PEG4-NHAc linker on lysine residues, sites not given; average D/A 6.3 per antibody
# notes: as for B17
# B19: hu2H11R35R74-PEG4-NHAc-DM4 (D/A 7.4) (antibody, V domains shown)
# VH: B1 VH with K74R
# VL: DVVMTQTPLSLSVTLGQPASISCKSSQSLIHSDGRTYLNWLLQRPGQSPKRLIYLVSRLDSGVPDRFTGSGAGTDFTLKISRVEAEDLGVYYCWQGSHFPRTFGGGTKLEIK
# modifications: DM4 through PEG4-NHAc linker on lysine residues, sites not given; average D/A 7.4 per antibody
# notes: as for B17
# B20: hu2H11R35R74-PEG4-NHAc-DM4 (D/A 8.4) (antibody, V domains shown)
# VH: B1 VH with K74R
# VL: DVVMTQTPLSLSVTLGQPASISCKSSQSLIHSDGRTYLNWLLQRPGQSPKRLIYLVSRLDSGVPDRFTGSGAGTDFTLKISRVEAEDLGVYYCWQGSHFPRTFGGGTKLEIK
# modifications: DM4 through PEG4-NHAc linker on lysine residues, sites not given; average D/A 8.4 per antibody
# notes: as for B17
# B21: hu2H11R35R74-PEG4-NHAc-DM4 (D/A 9.3) (antibody, V domains shown)
# VH: B1 VH with K74R
# VL: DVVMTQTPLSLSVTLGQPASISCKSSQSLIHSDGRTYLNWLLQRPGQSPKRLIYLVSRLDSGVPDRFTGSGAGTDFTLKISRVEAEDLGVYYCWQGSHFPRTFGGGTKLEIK
# modifications: DM4 through PEG4-NHAc linker on lysine residues, sites not given; average D/A 9.3 per antibody
# notes: as for B17
# Biological target: T1, EphA2 receptor on tumor cells (human, UniProt P29317 24-976)
# T1 sequence (P29317 24-976): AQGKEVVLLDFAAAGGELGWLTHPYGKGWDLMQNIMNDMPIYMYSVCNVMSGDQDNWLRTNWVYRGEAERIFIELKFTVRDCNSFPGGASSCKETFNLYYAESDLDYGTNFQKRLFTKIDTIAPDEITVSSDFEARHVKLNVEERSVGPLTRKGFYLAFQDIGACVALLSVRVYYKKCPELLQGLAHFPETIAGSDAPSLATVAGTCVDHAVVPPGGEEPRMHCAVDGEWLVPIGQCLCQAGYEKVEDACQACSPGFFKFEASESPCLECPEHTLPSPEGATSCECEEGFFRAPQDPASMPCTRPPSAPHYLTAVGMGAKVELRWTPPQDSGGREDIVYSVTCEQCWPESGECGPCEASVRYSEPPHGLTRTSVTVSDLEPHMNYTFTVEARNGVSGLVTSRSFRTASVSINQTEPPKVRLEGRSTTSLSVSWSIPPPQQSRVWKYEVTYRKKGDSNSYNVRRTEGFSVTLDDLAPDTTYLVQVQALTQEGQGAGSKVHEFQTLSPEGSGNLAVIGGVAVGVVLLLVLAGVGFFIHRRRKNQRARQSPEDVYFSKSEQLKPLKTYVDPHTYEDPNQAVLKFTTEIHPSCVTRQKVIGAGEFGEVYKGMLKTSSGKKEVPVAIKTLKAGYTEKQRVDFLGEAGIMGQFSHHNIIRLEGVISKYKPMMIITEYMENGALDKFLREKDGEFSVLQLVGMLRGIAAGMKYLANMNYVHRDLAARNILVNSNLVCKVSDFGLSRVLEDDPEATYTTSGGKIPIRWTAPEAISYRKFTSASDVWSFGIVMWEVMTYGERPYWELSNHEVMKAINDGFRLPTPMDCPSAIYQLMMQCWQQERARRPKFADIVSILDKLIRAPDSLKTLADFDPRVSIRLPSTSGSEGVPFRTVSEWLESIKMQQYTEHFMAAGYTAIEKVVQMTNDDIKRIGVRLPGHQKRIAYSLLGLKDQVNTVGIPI
# Test: cell-based or functional assay
Binder,"MDA-MB231 + naked 2H11 (1 uM) IC50 (nM), 14C thymidine uptake [nM]","MDA-MB231 IC50 (nM), 14C thymidine uptake [nM]",Ratio of IC50s (with naked 2H11 / alone) on MDA-MB231
B1,8.1,1.1,7
B2,11.5,1.2,9
B3,25.1,0.1,228
B4,27.4,0.2,114
B5,80.8,0.06,1350

# Biological target: T1, EphA2 receptor on tumor cells
# Test: cell-based or functional assay
# Remark: another data set of the same source
Binder,"IC50 (pM), + naked hu2H11R35R74 (1 uM), MDA MB231 cells [pM]","IC50 (pM), ADC alone, MDA MB231 cells, 14C thymidine uptake [pM]",ratio of IC50s (+ naked hu2H11R35R74 / ADC alone)
B6,29700,147,202
B7,25000,400,62
B8,7820,161,49
B9,36400,217,168
B10,19500,185,105

# Biological target: T1, EphA2 receptor on tumor cells
# Test: cell-based or functional assay
# Remark: another data set of the same source
row,Binder,"IC50 (M), cytotoxic activity on Lovo cells (WST8, 5 days) [M]"
1,B11,1.22e-10
2,B12,7.96e-11
3,B13,1.16e-11

# Biological target: T2, huEphA2-mFc (human, UniProt P29317 24-534, limits assumed)
# T2 construct: Immobilised antigen of the Biacore experiment; also called EphA2-Fc; extra-cellular domain of EphA2 receptor-Fc; not shown: mouse Fc (mFc)
# T2 sequence (P29317 24-534 limits assumed): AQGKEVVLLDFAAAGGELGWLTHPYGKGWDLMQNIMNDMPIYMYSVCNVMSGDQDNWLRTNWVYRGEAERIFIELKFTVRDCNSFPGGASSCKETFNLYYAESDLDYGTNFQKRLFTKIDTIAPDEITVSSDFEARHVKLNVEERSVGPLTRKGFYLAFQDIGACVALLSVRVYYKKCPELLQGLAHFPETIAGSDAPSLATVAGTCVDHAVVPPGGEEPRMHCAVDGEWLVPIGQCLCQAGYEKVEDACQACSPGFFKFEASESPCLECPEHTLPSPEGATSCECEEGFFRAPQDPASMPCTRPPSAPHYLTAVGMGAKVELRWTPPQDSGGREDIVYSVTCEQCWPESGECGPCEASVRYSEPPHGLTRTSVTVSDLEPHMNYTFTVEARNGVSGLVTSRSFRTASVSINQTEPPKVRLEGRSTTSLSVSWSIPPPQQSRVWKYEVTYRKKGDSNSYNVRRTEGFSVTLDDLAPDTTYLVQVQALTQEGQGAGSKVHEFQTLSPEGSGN
# Test: SPR, Biacore 3000; EphA2-Fc amine-coupled on C1 chip, IgG in flow, 25 C, 1:1 Langmuir fit
# Description: pH=4.5) was coupled to the matrix of a C1 sensor chip (GE healthcare BR-1005-40) at 10 μl/min using a standard amine coupling protocol with EDC (N-ethyl-N′-[dimethyl-aminopropyl]carbodiimide)/NHS (N-hydroxysuccinimide). The density was controlled at an increased response level of ˜100 response units (RU) in kinetic binding experiments. IgGs were diluted in 0.01 M Hepes, pH 7.4 containing 0.15 M NaCl, 3 mM EDTA, and 0.005% P20. All subsequent dilutions were made in the same buffer. All binding experiments were performed at 25° C. with IgG concentrations typically ranging from 50 to 0.2 nM at a flow rate of 50 μl/min.
# Data were collected for approximately 12 min (2 min association time and 10 min dissociation time) and 1 min pulse at 30 μl/min of 1M NaCl, 50 mM NaOH was used to regenerate the surfaces. IgGs were also flowed over an uncoated cell and the sensorgrams from the blank runs were substracted from those obtained with EphA2-Fc coupled chips. Data were fitted to a 1:1 Langmuir binding model with drifting baseline. This algorithm calculates both the kₒₙ and the koff, from which the apparent equilibrium dissociation constant KD, is deduced as the ratio of the two rate constants (koff/kₒₙ).
# The affinity constant was first measured with both naked hu2H11 and hu2H11R35R74.
Binder,Ka [M⁻¹],Kd [pM],Ratio (KD against naked hu2H11) [fold],koff [s⁻¹],kon [M⁻¹ s⁻¹]
B14,4.59e+09,218,0.7,0.00115,5.25e+06
B15,3.39e+09,298,1,0.0011,3.71e+06
B16,6.16e+08,1620,5.4,0.00242,1.49e+06
B17,3.8e+09,263,0.9,0.00115,4.35e+06
B18,3.55e+09,282,0.9,0.00119,4.21e+06
B19,3.64e+09,275,0.9,0.00123,4.47e+06
B20,3.76e+09,266,0.9,0.00111,4.15e+06
B21,2.38e+09,421,1.4,0.00129,3.08e+06
